What was measured:
[1] = tested on: human pluripotent stem cells; assay: Replacement of FGF2 by other FGFs in Stage 1 differentiation; format: cell-based; settings: FGF used in Stage 1 medium
Description: In some embodiments, the FGF used in Stage 1 is selected from the group consisting of FGF2, FGF4, FGF7, FGF10 and the mixtures thereof. […] Thus, one would use any one of FGF4, FGF7 and FGF10 to replace FGF2 in Stage 1. One may also use mixtures of two or more of FGF2, FGF4, FGF7 and FGF10 in this stage. In a specific embodiment, the FGF in Stage 1 is FGF2.

[2] = tested on: PDX1 and insulin protein expression in H1 cells; assay: Flow cytometry of PDX1 and insulin protein expression at end of Stage 4; format: cell-based, human
Description: To quantify insulin and PDX1 protein expression we optimized a flow cytometry assay. […] The INS-1 cell line is an immortalized pancreatic beta cell line that expresses both PDX1 and insulin. On the bottom left, is our negative control, unstained H1 cells differentiated for 18 days. On the right, is H1 cells differentiated by the current protocol through day 18 stained with Insulin-PB and PDX1-AF488. […] Only 8-11% of the cells are PDX1 and insulin double positive.
To examine protein expression we collected cells at the end of Stage 4 and examined them by flow cytometry.
Thus, the effect of Noggin is context dependent and synergistic with nicotinamide and Exendin-4.

[3] = tested on: insulin protein expression; assay: Immunohistochemistry of insulin protein expression after Stage 4; format: cell-based, human; settings: addition of Noggin at Stage 4
Experimental: Immunohistochemistry was performed at the end of Stage 4 (Day 18) to examine protein expression of Insulin and NKX6.1.

[4] = tested on: PDX1, NKX6.1, Neurogenin 3 and insulin gene expression; assay: QPCR gene expression of endoderm and pancreatic markers in differentiated cells; format: cell-based, human
Experimental: QPCR was performed at the end of Stage 4 ([…] Day 18) to examine gene expression of PDX1, a marker of pancreatic epithelium and progenitor cells, insulin, a marker of beta cells, and Sox9 which is expressed in the developing pancreatic epithelium. The gene expression is compared to undifferentiated cells collected at Day 0 and β-Actin is the internal control. […] Human Fetal Pancreas (HFP), gestation 14-20 weeks, is represented as a positive control.
In FIG. 19, the gene expression is compared to undifferentiated cells collected at Day 0 and B-Actin is the internal control. On the y axis is delta CT (instead of fold change), thus, the lower the value the greater the gene expression.
First, alterations at Stage 3 and 4 altered gene expression minimally. […] On the y axis is delta CT (instead of fold change), thus, the lower the value the greater the gene expression. […] In contrast the addition of Noggin at Stage 4, decreased PDX1 and NKX6.1 gene expression and increased Neurogenin 3 expression. There was no difference in insulin gene expression following the addition of Noggin to Stage 4.

B1: FGF10: fibroblast growth factor family ligand (protein, UniProt O15520 38-208, looked up)
Fibroblast growth factor 10: QALGQDMVSPEATNSSSSSFSSPSSAGRHVRSYNHLQGDVRWRKLFSFTKYFLKIEKNGKVSGTKKENCPYSILEITSVEIGVVAVKAINSNYYLAMNKKGKLYGSKEFNNDCKLKERIEENGYNTYASFNWQHNGRQMYVALNGKGAPRRGQKTRRKNTSAHFLPMVVHS
For B1, the “effects in Stage 1 relative to FGF2” value [1] was “comparable to FGF2”.

B2: FGF7: fibroblast growth factor 7 (protein, UniProt P21781 32-194, looked up)
Fibroblast growth factor 7: CNDMTPEQMATNVNCSSPERHTRSYDYMEGGDIRVRRLFCRTQWYLRIDKRGKVKGTQEMKNNYNIMEIRTVAVGIVAIKGVESEFYLAMNKEGKLYAKKECNEDCNFKELILENHYNTYASAKWTHNGGEMFVALNQKGIPVRGKKTKKEQKTAHFLPMAIT
With B2 the “effects in Stage 1 relative to FGF2” value [1] was “comparable to FGF2”.

B3: Noggin: a protein which in humans is encoded by the NOG gene; inhibits TGF-β signal transduction (protein, UniProt Q13253 28-232, looked up)
Noggin: QHYLHIRPAPSDNLPLVDLIEHPDPIFDPKEKDLNETLLRSLLGGHYDPGFMATSPPEDRPGGGGGAAGGAEDLAELDQLLRQRPSGAMPSEIKGLEFSEGLAQGKKQRLSKKLRRKLQMWLWSQTFCPVLYAWNDLGSRFWPRYVKVGSCFSKRSCSVPEGMVCKPSKSVHLTVLRWRCQRRGGQRCGWIPIQYPIISECKCSC
For B3, the double positive cells ([2]; Noggin in the context of ITSFINE) was “increases double positive cells”, the insulin expression ([2]; addition of Noggin at Stage 4 (ITSFINE)) was “increases insulin expression” and the double positive cells ([2]; addition of Noggin in the absence of nicotinamide and Exendin-4 (ITSFI)) was “does not further increase the double positive cells”. The “clustering and insulin protein expression” value [3] was “increased clustering and insulin protein expression”, the “hormonal status of insulin-expressing cells” value [3] was “a majority of those cells are still polyhormonal” and the NKX6.1 gene expression ([4]; addition of Noggin at Stage 4) was “decreased”. The “Neurogenin 3 expression” value ([4]; addition of Noggin at Stage 4) was “increased”, the PDX1 gene expression ([4]; addition of Noggin at Stage 4) was “decreased” and the insulin gene expression ([4]; addition of Noggin to Stage 4) was “no difference”.

B4: FGF4: fibroblast growth factor family ligand (protein, UniProt P08620 31-206, looked up)
Fibroblast growth factor 4: APTAPNGTLEAELERRWESLVALSLARLPVAAQPKEAAVQSGAGDYLLGIKRLRRLYCNVGIGFHLQALPDGRIGGAHADTRDSLLELSPVERGVVSIFGVASRFFVAMSSKGKLYGSPFFTDECTFKEILLPNNYNAYESYKYPGMFIALSKNGKTKKGNRVSPTMKVTHFLPRL
B4 was tested, and the “effects in Stage 1 relative to FGF2” value [1] was “comparable to FGF2”.
